Laboratory results as given in PMC10755794.
Changes are numbered by the printed parent chain. Numbers in names are those of the source.

B1: Phenylpyruvate decarboxylase Aro10p (Aro10p^HJ) (Saccharomyces cerevisiae S288C; A377V/K527R) (protein)
chain: MAPVTIEKFVNQEERHLVSNRSATIPFGEYIFKRLLSIDTKSVFGVPGDFNLSLLEYLYSPSVESAGLRWVGTCNELNAAYAADGYSRYSNKIGCLITTYGVGELSALNGIAGSFAENVKVLHIVGVAKSIDSRSSNFSDRNLHHLVPQLHDSNFKGPNHKVYHDMVKDRVACSVAYLEDIETACDQVDNVIRDIYKYSKPGYIFVPADFADMSVTCDNLVNVPRISQQDCIVYPSENQLSDIINKITSWIYSSKTPAILGDVLTDRYGVSNFLNKLICKTGIWNFSTVMGKSVIDESNPTYMGQYNGKEGLKQVYEHFELCDLVLHFGVDINEINNGHYTFTYKPNAKIIQFHPNYIRLVDTRQGNEQMFKGINFVPILKELYKRIDVSKLSLQYDSNVTQYTNETMRLEDPTNGQSSIITQVHLQKTMPKFLNPGDVVVCETGSFQFSVRDFAFPSQLKYISQGFFLSIGMALPAALGVGIAMQDHSNAHINGGNVKEDYKPRLILFEGDGAAQMTIQELSTILRCNIPLEVIIWNNNGYTIERAIMGPTRSYNDVMSWKWTKLFEAFGDFDGKYTNSTLIQCPSKLALKLEELKNSNKRSGIELLEVKLGELDFPEQLKCMVEAAALKRNKK
B2: Phenylpyruvate decarboxylase Aro10p (Aro10p^S288C) (Saccharomyces cerevisiae S288C) (protein)
chain: B1 chain with V377A, R527K

Substrate: O=C(O)C(=O)Cc1ccccc1
Assay: purified protein
Format: biochemical, Saccharomyces cerevisiae
Conditions: ThDP, Mg2+

Row | Protein | Km [µM] | Vmax [µmol/min/mg] | kcat/Km [M⁻¹ s⁻¹]
1 | B1 | 86.36 ± 6.18 | 2.11 | 595000 ± 33500
2 | B2 | 102.24 ± 2.15 | 2.26 | 597000 ± 20500
